According to the supplement of paper PMC9170038:

Assays:
[1] = tested on: MS2 coat protein; test: apparent KD of MS2 coat protein, switch ON state; designed switch direction (-1 OFF switch, 1 ON switch): 1; higher = weaker reporter binding; conditions: FMN input: 0 or 200 uM; Eterna round: R93 (includes R88 designs)
How it was run: (§1)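 SNAP-549-labelled MS2 coat protein was titrated onto designed RNA switches that had been transcribed on-chip from Illumina sequencing clusters. Amounts doubled from 0.7 or 1.5 nM to 3 µM in 100 mM Tris-HCl pH 7.5, 80 mM KCl, 4 mM MgCl2, with constant ligand or without. Apparent KD is the median per design of normalised cluster binding-curve fits.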

[2] = tested on: MS2 coat protein; test: apparent KD of MS2 coat protein, switch OFF state (with FMN for OFF switches, without FMN for ON switches); designed switch direction (-1 OFF switch, 1 ON switch): 1; higher = weaker reporter binding; conditions: FMN input: 0 or 200 uM; Eterna round: R93 (includes R88 designs)
How it was run: as §1

Row | Sequence | apparent KD of MS2 coat protein [1] [nM] | apparent KD of MS2 coat protein [2] [nM]
1 | AAAUAAAUGACUAAGGAUAUAUCGAAGAAGACAUGAGGAUCACCCAUGUAAUAAUAAAAAGGGUGGUAGAAGGUAGUCAACAAAC [Mod 6 of Pariah 4 by Hyphema in Round 1] | 156 | 233
2 | AAAUAAAUGACUGAGGAUAUAUCGAUGAAUACAUGAGGAUCACCCAUGUGAUAAUAAAAAGGGUGGUAGAAGGUAGUCAACAAAC [Mod 13 of Pariah 4 by Hyphema in Round 1] | 95.9 | 71.9
3 | AAAUAAAUGACUGAGGAUAUGUCGAAGAAAACAUGAGGAUCACCCAUGUGAUAAUAAAAAGGGUGAUAGAAGGUAGUCAACAAAC [Mod 10 of Pariah 4 by Hyphema in Round 1] | 323 | 262
4 | AAAUAACAUGAGGAUCACCCAUGUCAAAUAAAUCGAGGAUAUGGGCCCGAGUUCCGGGAGCCAGAAGGCGAAAAGA [Ceusrete] | 28.9 | 51.7
5 | AAAUAACAUGAGGAUCACCCAUGUCAAAUAAAUCGAGGAUAUGGGCCCGGGUUCCGGAAGCCAGAAGGCGAAAAGA [Diareslera] | 24.9 | 55.1
6 | AAAUAACAUGAGGAUCACCCAUGUUACAACAUUACAGGAUAUGUGGGUGAAAAUAGCAUGACAGAAGGGUACUGUA [SameState1 Malc#34] | 479 | 393
7 | AAAUAACAUGAGGAUCACCCAUGUUGCAACGGUUGAGGAUAUGUGGGUGAAAAUAGCAUGGCAGAAGGCGAGUGUA [SameState1 Malc#27] | 58.1 | 31.9
8 | AAAUGACAUGAGGAUCACCCAUGUCCACCAAACGGAGGAUAUUGGGCGGCAAAACGUUGUUAAGAAGGCCGAAAAA [SS1-1.1] | 60 | 28
9 | AACAAACAUGAGGAUCACCCAUGUCAAACAUACCAAGGAUAUGGGAGACGAGACUCGUCACCAGAAGGUGGAAAUU [Maatce] | 106 | 123
10 | AACAACAAUAUGAAGGAUAUCCACAACAAGACAUGAGGAUCACCCAUGUAAACAAAGAACAUACAGGAGAAGGUCAAGGGUGAAA [JR_SS002_Sub1203] | 56.2 | 39
11 | AACAAUCUAUCUGAGGAUAUCAUGUCAAAGACAUGAGGAUCACCCAUGUGCAGGAAAACUGCAUAUGAGAAGGCAGAUAGAUUGA [SS2 :P - 599] | 217 | 130
12 | AACAAUCUAUCUGAGGAUAUGUGUCAAAAGACAUGAGGAUCACCCAUGUAAAAACAUGAAAAGACACAGAAGGCAGAUAGAUUGA [SS2: 1153] | 21.4 | 44.2
13 | AACAAUCUAUCUGAGGAUAUGUGUCGAAAGACAUGAGGAUCACCCAUGUGAAAACAUGAAAAGACACAGAAGGCAGAUAGAUUGA [SS2: 1154] | 40.2 | 41.5
14 | AACAGACAUGAGGAUCACCCAUGUAGAAUUAUGGGAGGAUAUACAAAGACGAGAGUCAGAGUAGAAGGCCUAGGAC [salish99-ss1-163] | 20 | 71.2
15 | AACAUACAUGAGGAUCACCCAUGUUCCGGCAGGGCAGGAUAUCCAUCGAAAGUGUUAUAAGGAGAAGGGCCAUAAA [JR_SS001_Sub013] | 31.7 | 93.3
16 | AACAUACAUGAGGAUCACCCAUGUUUAUAAAAACAAGGAUAUAUAAGAACAAACAAACAAAUAGAAGGUGUAAAAA [Default title] | 23.4 | 17.2
17 | AACCAACAUGAGGAUCACCCAUGUCAACCCAAGGCAGGAUAUGCGAGAAUAACAAUGGGAGCAGAAGGGCCGACCU [ss1-3] | 40 | 53.4
18 | AACCGCGCUAUACAGGAUAUCACAAUAUCGACAUGAGGAUCACCCAUGUGACUGGCACCAGUCGGUGAGAAGGGUGAAGUGCGGC [Tilemage] | 149 | 238
19 | AACUAACAUGAGGAUCACCCAUGUAUUCAAACAUGAGGAUAUAUAACACAUCAUCGACAGAUAGAAGGCAUAAAUA [JR_SS001_Sub1205] | 89.6 | 78.5
20 | AACUAACAUGAGGAUCACCCAUGUUGCAGCGGUUGAGGAUAUGUGGGUGAAAAUAGCAUGGCAGAAGGCGAGUGUA [SameState1 Malc#25] | 68.8 | 52.2
21 | AAGAAACAUGAGGAUCACCCAUGUAGAAAUAUGGGAGGAUAUACGAAGACGAAAGUCAAAGUAGAAGGCCUAAGAA [Mat - Same State 1 - Eli mod - D105] | 36.3 | 82
